Columns and labels:
[1] = target: ISCth4 transposase (TnpA) (Clostridium thermocellum (ATCC 27405)); test: AUC; sedimentation velocity, TnpA alone at 0.5-2 uM, 20 C, 50,000 RPM, 10 mM HEPES pH 7.5, 100 mM, 0.3 mM TCEP; monomer to dimer
[2] = target: ISCth4 transposase (TnpA) (Clostridium thermocellum (ATCC 27405)); test: AUC; sedimentation velocity, TnpA (0.5 or 5 uM) with molar excess of TIR DNA oligonucleotides (R-TIR26 at 4:1 DNA:TnpA; R35(j6)L35 or R35r41 with increasing DNA), 20 C, 10 mM HEPES pH 7.5, 100 mM, 0.3 mM TCEP
[3] = target: T1, ISCth4 transposase (TnpA) (Clostridium thermocellum ATCC 27405, UniProt A3DBR0 1-407); test: X-ray crystallography; PRC; TnpA dimer on one DNA; 10 mM CaCl2 in precipitant; SEC: 10 mM HEPES pH 7.5, 100 mM NaCl, 0.3 mM TCEP, 4 C. Crystals: PCC 25 mM HEPES pH 7.5, 150 mM NaCl, 2 mM TCEP, 20 C; PRC/STC1 10 mM HEPES pH 7.5, 100 mM NaCl; conditions: protein: recombinant; tags: Trx-His-TEV fusion removed by TEV; chain copies: 2; blunt
T1 sequence: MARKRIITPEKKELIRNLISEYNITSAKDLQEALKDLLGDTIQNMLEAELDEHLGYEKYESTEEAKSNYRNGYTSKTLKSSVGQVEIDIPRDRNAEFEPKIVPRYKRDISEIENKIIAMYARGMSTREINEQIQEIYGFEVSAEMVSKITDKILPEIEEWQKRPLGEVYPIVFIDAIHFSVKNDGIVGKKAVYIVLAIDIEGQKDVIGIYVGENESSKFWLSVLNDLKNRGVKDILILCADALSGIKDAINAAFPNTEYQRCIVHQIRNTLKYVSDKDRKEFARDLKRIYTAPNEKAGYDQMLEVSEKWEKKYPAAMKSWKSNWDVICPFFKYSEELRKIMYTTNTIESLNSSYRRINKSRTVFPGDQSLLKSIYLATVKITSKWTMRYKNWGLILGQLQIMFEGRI

[4] = target: T1, ISCth4 transposase (TnpA); test: SV AUC; 5 uM TnpA; 7.9 S, 138 kDa dimer:1 DNA, plus ~12 S at DNA:TnpA 0.25:1; SEC: 10 mM HEPES pH 7.5, 100 mM NaCl, 0.3 mM TCEP, 4 C. Crystals: PCC 25 mM HEPES pH 7.5, 150 mM NaCl, 2 mM TCEP, 20 C; PRC/STC1 10 mM HEPES pH 7.5, 100 mM NaCl; conditions: protein: recombinant; tags: Trx-His-TEV fusion removed by TEV; chain copies: 2; label: 5'FAM on strand 1 in the labeled version; blunt
[5] = target: T1, ISCth4 transposase (TnpA); test: X-ray crystallography; STC1; TnpA dimer on one DNA; ZnCl2 in drop; SEC: 10 mM HEPES pH 7.5, 100 mM NaCl, 0.3 mM TCEP, 4 C. Crystals: PCC 25 mM HEPES pH 7.5, 150 mM NaCl, 2 mM TCEP, 20 C; PRC/STC1 10 mM HEPES pH 7.5, 100 mM NaCl; conditions: protein: recombinant; tags: Trx-His-TEV fusion removed by TEV; chain copies: 2; 3 strands; blunt outer ends; 1-nt gap between S68 and S66
[6] = target: T1, ISCth4 transposase (TnpA); test: SV AUC; 5 uM TnpA; ~7.9 S, plus ~12 S at DNA:TnpA 0.25:1; SEC: 10 mM HEPES pH 7.5, 100 mM NaCl, 0.3 mM TCEP, 4 C. Crystals: PCC 25 mM HEPES pH 7.5, 150 mM NaCl, 2 mM TCEP, 20 C; PRC/STC1 10 mM HEPES pH 7.5, 100 mM NaCl; conditions: protein: recombinant; tags: Trx-His-TEV fusion removed by TEV; chain copies: 2; blunt
[7] = target: T1, ISCth4 transposase (TnpA); test: SEC; 40 uM TnpA; ~450 kDa, octamer with 4 TIRs; behaves like R-TIR; SEC: 10 mM HEPES pH 7.5, 100 mM NaCl, 0.3 mM TCEP, 4 C. Crystals: PCC 25 mM HEPES pH 7.5, 150 mM NaCl, 2 mM TCEP, 20 C; PRC/STC1 10 mM HEPES pH 7.5, 100 mM NaCl; conditions: protein: recombinant; tags: Trx-His-TEV fusion removed by TEV; chain copies: 2; blunt
[8] = target: T1, ISCth4 transposase (TnpA); test: X-ray crystallography; PCC; TnpA dimer on one DNA, no metal in active site; 3.5 A native; SEC: 10 mM HEPES pH 7.5, 100 mM NaCl, 0.3 mM TCEP, 4 C. Crystals: PCC 25 mM HEPES pH 7.5, 150 mM NaCl, 2 mM TCEP, 20 C; PRC/STC1 10 mM HEPES pH 7.5, 100 mM NaCl; conditions: protein: recombinant; tags: Trx-His-TEV fusion removed by TEV; chain copies: 2; blunt

Work on ISCth4 transposase (TnpA) (enzyme) yielded a stoichiometry N [1] of 2 and a stoichiometry N [2] of 2.

B1: fR-TIR26 (dsDNA)
DNA 1: TTTTTGGGCAGTGTAAATATTTTTGTGTAAAC
DNA 2: GTTTACACAAAAATATTTACACTGCCCAAAAA
B1: binds [3].

B2: R35(j6)L35 (dsDNA)
DNA 1: GCACTGGATGTTTACACAAAAATATTTACACTGCCTTTTTTGAGATTGTAAAATATTTTATGTAAACAGTGCACTG
DNA 2: CAGTGCACTGTTTACATAAAATATTTTACAATCTCAAAAAAGGCAGTGTAAATATTTTTGTGTAAACATCCAGTGC
B2: binds [4].

B3: R26(j6)L15-5'rec (dsDNA)
DNA 1: GTTTACACAAAAATATTTACACTGCCGTTTTGGAGATTGTAAAATAT
DNA 2: ATATTTTACAATCTCCAAAAC
DNA 3: GCAGTGTAAATATTTTTGTGTAAAC
B3: binds [5].

B4: R35r41 (dsDNA)
DNA 1: GCACTGGATGTTTACACAAAAATATTTACACTGCCTTTTTTTACCTAGTCATCAATGCCTACGTACGTAACGTTAC
DNA 2: GTAACGTTACGTACGTAGGCATTGATGACTAGGTAAAAAAAGGCAGTGTAAATATTTTTGTGTAAACATCCAGTGC
B4: binds [6].

B5: L-TIR26 (dsDNA)
DNA 1: GAGATTGTAAAATATTTTATGTAAAC
DNA 2: GTTTACATAAAATATTTTACAATCTC
B5: binds [7].

B6: R-TIR26 (dsDNA)
DNA 1: GGCAGTGTAAATATTTTTGTGTAAAC
DNA 2: GTTTACACAAAAATATTTACACTGCC
B6: binds [8].
